From patent publication EP2441771A1, “New 12alpha-hydroxysteroid dehydrogenase mutants, method for their manufacture and application thereof” (PharmaZell GmbH, priority 2010, dated 2012)

What was measured:
[1] = test system: NC(=O)c1ccc[n+]([C@@H]2O[C@H](COP(=O)([O-])OP(=O)(O)OC[C@H]3O[C@@H](n4cnc5c(N)ncnc54)[C@H](OP(=O)(O)O)[C@@H]3O)[C@@H](O)[C@H]2O)c1; assay: Enzyme kinetics (Michaelis-Menten) in microtiter plate photometer, cell lysate; format: biochemical, Clostridium sp. group P strain 48-50; conditions: other: WT; constant 10 mM Cholsäure, 2 µM to 100 µM NADP^+ (16 concentrations); nonlinear regression
Text: (§1) Für jede der Mutanten sowie für das Wildtyp-Enzym wurden Kinetikmessungen im Mikrotiterplattenphotometer durchgeführt, indem die Umsatzraten der Enzyme sowohl mit gleichbleibenden Substratkonzentrationen bei variierten Kofaktorkonzentrationen als auch vice versa aufgezeichnet wurden. Zur Bestimmung der spezifischen Enzymaktivität wurden die Enzymkonzentrationen im Zelllysat densitometrisch bestimmt.
(§2) Zur Ermittlung der Abhängigkeit der Substratumsatzgeschwindigkeit von der Substratkonzentration wurde eine Kofaktorkonzentration von 100 µM NADP^+ eingesetzt, während die Substratkonzentration über einen Bereich von 6 µM bis 10 mM Cholsäure mit 32 verschiedenen Konzentrationen variiert wurde.
(§3) Zur Ermittlung der Abhängigkeit der Substratumsatzgeschwindigkeit von der Kofaktorkonzentration wurde eine Substratkonzentration von 10 mM Cholsäure bezogen auf das Reaktionsvolumen eingesetzt, während die Kofaktorkonzentration über einen Bereich von 2 µM bis 100 µM NADP^+ mit 16 verschiedenen Konzentrationen beim Wildtypprotein bzw. über einen Bereich von 2 µM bis 1000 µM NADP^+ mit 24 verschiedenen Konzentrationen bei den beiden Mutanten variiert wurde (jeweils bezogen auf den Raktionsansatz).
(§4) Über das eingesetzte Volumen an Zelllysat lässt sich die volumenbezogene Enzymaktivität berechnen. Zusammen mit den bestimmten Enzymkonzentrationen lassen sich die spezifischen Enzymaktivitäten berechnen. […]

[2] = test system: C[C@H](CCC(=O)O)[C@H]1CC[C@H]2[C@@H]3[C@H](O)C[C@@H]4C[C@H](O)CC[C@]4(C)[C@H]3C[C@H](O)[C@]12C; assay: as above; format: biochemical, Clostridium sp. group P strain 48-50; conditions: other: WT; constant 100 µM NADP^+, 6 µM to 10 mM Cholsäure (32 concentrations); nonlinear regression
Text: as §1, §2, §3, §4

For “12α-HSDH (WT), Wildtyp-Enzym, Clostridium sp. group P strain 48-50, SEQ ID NO:6 (Clostridium sp. ATCC 29733)”, which Km [1] is on record?
The Km was 21,4 ± 2,3 µM.

What about the Km [2] of the same substance?
The Km was 136 ± 12 µM.
